US20090054250
Where two headings read alike, the source gives them in different places.

Key:
[1] = test system: IgE immunoglobulin, P01854-1; settings: saturating IgE
[2] = test system: IgE immunoglobulin, P01854-1; settings: n at position 18 is 2-aminopurine replacing C [18 (2-aminopurine replacing C)]; PAGE purified, saturating IgE; affinity stated comparable to unmodified aptamer; screening buffer 20 mM Tris pH 7.1, 140 mM NaCl, 5 mM KCl, 10 mM CaCl2, 10 mM …

IgE immunoglobulin, P01854-1, sequence (P01854 other isoform, or with tags, fused parts or gaps): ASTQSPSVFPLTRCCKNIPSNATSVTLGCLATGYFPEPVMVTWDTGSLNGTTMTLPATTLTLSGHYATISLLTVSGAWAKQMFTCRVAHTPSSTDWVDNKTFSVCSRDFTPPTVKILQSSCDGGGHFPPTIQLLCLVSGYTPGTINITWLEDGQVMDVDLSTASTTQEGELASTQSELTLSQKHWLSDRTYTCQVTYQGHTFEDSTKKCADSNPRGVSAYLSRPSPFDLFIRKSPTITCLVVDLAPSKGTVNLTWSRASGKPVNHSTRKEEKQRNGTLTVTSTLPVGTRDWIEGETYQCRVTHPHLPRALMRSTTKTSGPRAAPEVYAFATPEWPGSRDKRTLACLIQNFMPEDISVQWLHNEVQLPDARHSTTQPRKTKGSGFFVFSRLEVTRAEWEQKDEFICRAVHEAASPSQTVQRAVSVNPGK

GGGGCACGTTTATCCGTCCCTCCTAGTGGCGTGCCCC [IgE aptamer 6MAP-18]
binding signal (fold fluorescence increase) ([1]; n at position 18 is 6MAP replacing C [18 (6MAP replacing C)]): 1.9

GGGGCACGTTTATCCGTCCCTCCTAGTGGCGTGCCCC [IgE aptamer 2AP-18]
binding signal (fold fluorescence increase) [2]: 5.6

GGGGCACGTTTATCCGTCCCTCCTAGTGGCGTGCCCC [IgE aptamer 3MI-18]
binding signal (fold fluorescence increase) ([1]; n at position 18 is 3-methylisoxanthopterin replacing C [18 (3-methylisoxanthopterin replacing C)]): 1.5
